Measured values reported in paper PMC6613885.

Target: GST-LC3A
Test: GST-pulldown, in vitro-translated 35S-labelled protein, autoradiography quantification
Conditions: Means ± SD of 3 independent experiments, read off a plot

Substance | response (parent: est. 0.5) | response (parent: est. 1.7) | response (parent: est. 2.6)
Myc-tagged BECN1, full-length, in vitro translated (from UniProt Q14457) S90E; S93E; S96E | 0.6 % binding |  | 
Myc-tagged PIK3C3, full-length, in vitro translated (from UniProt Q8NEB9) F198A; I201A; F250A; V253A |  | 1 % binding | 
Myc-tagged ATG14, full-length, in vitro translated (from UniProt Q6ZNE5) F64A; F67A; W435A; L438A |  |  | 1 % binding
Myc-tagged ATG14, full-length, in vitro translated (from UniProt Q6ZNE5) W435A; L438A |  |  | 1.2 % binding
Myc-tagged BECN1, full-length, in vitro translated (from UniProt Q14457) F97A; I100A; S90E; S93E; S96E | 0.25 % binding |  | 
Myc-tagged PIK3C3, full-length, in vitro translated (from UniProt Q8NEB9) F250A; V253A |  | 1.2 % binding | 
Myc-tagged PIK3C3, full-length, in vitro translated (from UniProt Q8NEB9) F198A; I201A |  | 1.8 % binding | 
Myc-tagged ATG14, full-length, in vitro translated (from UniProt Q6ZNE5) F64A; F67A |  |  | 2.3 % binding
Myc-tagged BECN1, full-length, in vitro translated (from UniProt Q14457) F97A; I100A | 0.25 % binding |  | 
